A word on the Kd: it is the free concentration of one partner at which half of the binding sites on the other are occupied at equilibrium, for simple one-to-one binding.

Common to all, as to experiment: equilibrium binding isotherms of eEF2 on ribosomes
For experiment [1], the target named is wild-type yeast ribosomes (salt-washed), with wild-type ribosomal protein L3 (S. cerevisiae) (UniProt P14126).
Experiment [2] has as its target yeast ribosomes (salt-washed) with ribosomal protein L3 mutant S2A (S. cerevisiae) (UniProt P14126).
In experiment [3] the target is yeast ribosomes (salt-washed) with ribosomal protein L3 mutant S2K (S. cerevisiae) (UniProt P14126).
Experiment [4] has as its target yeast ribosomes (salt-washed) with ribosomal protein L3 mutant S2T (S. cerevisiae) (UniProt P14126).

Take “6 × His-tagged eEF2 (elongation factor 2) (from UniProt P32324 1-842) (natural protein)”: the Kd stood at 18.7 nM in experiment [1], 19.9 nM in experiment [2], 20.4 nM in experiment [3] and 20.7 nM in experiment [4].

For the origin of these results see publication PMC2577335.
